{"source": "patent US20210077575A1", "about": "“NANOPARTICLES FOR THE TARGETED DELIVERY OF THERAPEUTIC POLYPEPTIDES” (Cedars-Sinai Medical Center, priority 2018, published 2021)", "molecules": {"B1": {"name": "GeloninD10: cytotoxic polypeptide gelonin with a C-terminal deca-aspartic acid tag (protein)", "chain": "GLDTVSFSTKGATYITYVNFLNELRVKLKPEGNSHGIPLLRKKCDDPGKCFVLVALSNDNGQLAEIAIDVTSVYVVGYQVRNRSYFFKDAPDAAYEGLFKNTIKTRLHFGGSYPSLEGEKAYRETTDLGIEPLRIGIKKLDENAIDNYKPTEIASSLLVVIQMVSEAARFTFIENQIRNNFQQRIRPANNTISLENKWGKLSFQIRTSGANGMFSEAVELERANGKKYYVTAVDQVKPKIALLKFVDKDPKDDDDDDDDDD"}}, "assay": "Nanoparticle size by dynamic light scattering (Example 2)", "type": "physicochemical", "conditions": "distribution by number; FIG. 2D-F, GeloninD10 series", "procedure": "The composition comprising the HerPBK10-GFPD10 nanoparticles and the composition comprising the HerPBK10-GeloninD10 were then subjected to dynamic light scattering (DLS) to determine the diameter of the resulting nanoparticles. Solutions of GFPD10 (no HerPBK10), GeloninD10 (no HerPBK10) and HerPBK10 (no GFPD10 or GeloninD10) were also measured by DLS."}
{"molecule": "B1", "values": [{"measurement": "diameter / measured size (DLS)", "result": "about 2.9 nm"}]}
